Data: the Human Domainome abundance scans (Beltran et al. 2025)
± gives the uncertainty stated by the source.

B1: Homeobox protein cut-like 2, residues 895 to 963; numbered along this chain, O14529 (parent)
chain: EVDTLELTRQVKEKLAKNGICQRIFGEKVLGLSQGSVSDMLSRPKPWSKLTQKGREPFIRMQLWLSDQL

Variants of: B1
Assay: abundance fitness (aPCA) (normalised: wild type 0, dead -1); higher = more abundant; growth selection in yeast, the domain comes from the species named
Settings: Homo sapiens

| Variant | abundance fitness |
| --- | --- |
| EVDTLELTRQVKEKLAKNGICQRIFGEKVLGLSQGSVSDMLSTPKPWSKLTQKGREPFIRMQLWLSDQL | -0.162 ± 0.036 |
| EVDTLELTRQVKEKLAKNGICQRIFGEKVLGLSQGSVSDMLSNPKPWSKLTQKGREPFIRMQLWLSDQL | -0.03 ± 0.078 |
| EVDTLELTRQVKEKLAKNGICQRIFGEKVLGLSQGSVSDMLSYPKPWSKLTQKGREPFIRMQLWLSDQL | 0.017 ± 0.078 |
| EVDTLELTRQVKEKLAKNGICQRIFGEKVLGLSQGSVSDMLSMPKPWSKLTQKGREPFIRMQLWLSDQL | -0.224 ± 0.047 |
| EVDTLELTRQVKEKLAKNGICQRIFGEKVLGLSQGSVSDMLSRPKPWAKLTQKGREPFIRMQLWLSDQL | -0.064 ± 0.045 |
| EVDTLELTRQVKEKLAKNGICQRIFGEKVLGLSQGSVSDMLSRPKPWCKLTQKGREPFIRMQLWLSDQL | -0.003 ± 0.075 |
| EVDTLELTRQVKEKLAKNGICQRIFGEKVLGLSQGSVSDMLSRPKVWSKLTQKGREPFIRMQLWLSDQL | -0.415 ± 0.29 |
| EVDTLELTRQVKEKLAKNGICQRIFGEKVLGLSQGSVSDMLSRPKCWSKLTQKGREPFIRMQLWLSDQL | -0.319 ± 0.079 |
| EVDTLELTRQVKEKLAKNGICQRIFGEKVLGLSQGSVSDMLSRPKKWSKLTQKGREPFIRMQLWLSDQL | -0.095 ± 0.071 |
| EVDTLELTRQVKEKLAKNGICQRIFGEKVLGLSQGSVSDMLSRPKNWSKLTQKGREPFIRMQLWLSDQL | -0.223 ± 0.049 |
| EVDTLELTRQVKEKLAKNGICQRIFGEKVLGLSQGSVSDMLSRPKTWSKLTQKGREPFIRMQLWLSDQL | -0.08 ± 0.036 |
| EVDTLELTRQVKEKLAKNGICQRIFGEKVLGLSQGSVSDMLSRPKWWSKLTQKGREPFIRMQLWLSDQL | 0.044 ± 0.085 |
| EVDTLELTRQVKEKLAKNGICQRIFGEKVLGLSQGSVSDMLSRPKIWSKLTQKGREPFIRMQLWLSDQL | -0.071 ± 0.046 |
| EVDTLELTRQVKEKLAKNGICQRIFGEKVLGLSQGSVSDMLSRPKRWSKLTQKGREPFIRMQLWLSDQL | -0.057 ± 0.08 |
| EVDTLELTRQVKEKLAKNGICQRIFGEKVLGLSQGSVSDMLSRPKHWSKLTQKGREPFIRMQLWLSDQL | -0.077 ± 0.05 |
| EVDTLELTRQVKEKLAKNGICQRIFGEKVLGLSQGSVSDMLSRPKQWSKLTQKGREPFIRMQLWLSDQL | -0.053 ± 0.082 |
| EVDTLELTRQVKEKLAKNGICQRIFGEKVLGLSQGSVSDMLSRPKAWSKLTQKGREPFIRMQLWLSDQL | -0.236 ± 0.28 |
| EVDTLELTRQVKEKLAKNGICQRIFGEKVLGLSQGSVSDMLSRPKMWSKLTQKGREPFIRMQLWLSDQL | -0.214 ± 0.06 |
| EVDTLELTRQVKEKLAKNGICQRIFGEKVLGLSQGSVSDMLSRPKFWSKLTQKGREPFIRMQLWLSDQL | 0.039 ± 0.032 |
| EVDTLELTRQVKEKLAKNGICQRIFGEKVLGLSQGSVSDMLSRPKLWSKLTQKGREPFIRMQLWLSDQL | 0.026 ± 0.032 |

| Variant | abundance fitness |
| --- | --- |
| EVDTLELTRQVKEKLAKNGICQRIFGEKVLGLSQGSVSDMLSRPKSWSKLTQKGREPFIRMQLWLSDQL | -0.093 ± 0.027 |
| EVDTLELTRQVKEKLAKNGICQRIFGEKVLGLSQGSVSDMLSRPKYWSKLTQKGREPFIRMQLWLSDQL | -0.078 ± 0.035 |
| EVDTLELTRQVKEKLAKNGICQRIFGEKVLGLSQGSVSDMLSRPKPGSKLTQKGREPFIRMQLWLSDQL | -1.01 ± 0.14 |
| EVDTLELTRQVKEKLAKNGICQRIFGEKVLGLSQGSVSDMLSRPKPNSKLTQKGREPFIRMQLWLSDQL | -0.895 ± 0.14 |
| EVDTLELTRQVKEKLAKNGICQRIFGEKVLGLSQGSVSDMLSRPKPESKLTQKGREPFIRMQLWLSDQL | -1.08 ± 0.14 |
| EVDTLELTRQVKEKLAKNGICQRIFGEKVLGLSQGSVSDMLSRPKPYSKLTQKGREPFIRMQLWLSDQL | -0.554 ± 0.063 |
| EVDTLELTRQVKEKLAKNGICQRIFGEKVLGLSQGSVSDMLSRPKPLSKLTQKGREPFIRMQLWLSDQL | -0.488 ± 0.028 |
| EVDTLELTRQVKEKLAKNGICQRIFGEKVLGLSQGSVSDMLSRPKPKSKLTQKGREPFIRMQLWLSDQL | -1.28 ± 0.16 |
| EVDTLELTRQVKEKLAKNGICQRIFGEKVLGLSQGSVSDMLSRPKPDSKLTQKGREPFIRMQLWLSDQL | -0.772 ± 0.088 |
| EVDTLELTRQVKEKLAKNGICQRIFGEKVLGLSQGSVSDMLSRPKPMSKLTQKGREPFIRMQLWLSDQL | -0.681 ± 0.053 |
| EVDTLELTRQVKEKLAKNGICQRIFGEKVLGLSQGSVSDMLSRPKPASKLTQKGREPFIRMQLWLSDQL | -0.81 ± 0.06 |
| EVDTLELTRQVKEKLAKNGICQRIFGEKVLGLSQGSVSDMLSRPKPVSKLTQKGREPFIRMQLWLSDQL | -0.808 ± 0.044 |
| EVDTLELTRQVKEKLAKNGICQRIFGEKVLGLSQGSVSDMLSRPKPCSKLTQKGREPFIRMQLWLSDQL | -1.01 ± 0.15 |
| EVDTLELTRQVKEKLAKNGICQRIFGEKVLGLSQGSVSDMLSRPKPRSKLTQKGREPFIRMQLWLSDQL | -0.793 ± 0.077 |
| EVDTLELTRQVKEKLAKNGICQRIFGEKVLGLSQGSVSDMLSRPKPFSKLTQKGREPFIRMQLWLSDQL | -0.338 ± 0.041 |
| EVDTLELTRQVKEKLAKNGICQRIFGEKVLGLSQGSVSDMLSRPKPHSKLTQKGREPFIRMQLWLSDQL | -0.894 ± 0.063 |
| EVDTLELTRQVKEKLAKNGICQRIFGEKVLGLSQGSVSDMLSRPKPPSKLTQKGREPFIRMQLWLSDQL | -0.964 ± 0.057 |
| EVDTLELTRQVKEKLAKNGICQRIFGEKVLGLSQGSVSDMLSRPKPTSKLTQKGREPFIRMQLWLSDQL | -0.654 ± 0.062 |
| EVDTLELTRQVKEKLAKNGICQRIFGEKVLGLSQGSVSDMLSRPKPQSKLTQKGREPFIRMQLWLSDQL | -0.84 ± 0.058 |
